Laboratory results taken from a protein production outcome set (Wang et al. 2014).

Assay: label from the status in PepcDB records
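Further: failed if final PepcDB status was selected cloned or expressed and not failed if soluble or beyond.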

Row | Sequence | protein production
1 | MIILGQALYQKDQFAEAAKCLEQAASKLLDTSPTEVEEVDLLIVASQWAGVSNIRQGKTSEGITHLERVANMKEPDDPKSKAHYLDALVLYSSAIFNEGRREEAAKYLRRVVAYDPSFSELLKQCEEDDTIPTSSSSNSTSKTS | failed
2 | MIINDPVKITGIVDILIIIIFTSLGFRGFLRGFIKEISGFAEVFVLILLLYKKTEEFRRFVEPIIELSYIQALLVFFLLIHIGFLILQSLIESIISQLKLLFFNRILGLVLGLLEAFGIIAIVVYIIHSQQIFKPEYFLKESKLLDYLNPGINYLFKISKTK | failed
3 | MIIPGIAAAETCPDGYKNVSVCKAEKMVEKEDVFLLDVRTPAEFNKTHIEGTILIPVKNVPAQDPVELSSDELLEVRINEVPADEKILVYCKSGARSAAACSLLVSNGYRKVYNMRGGIDCWLARGCTVDVNADKADELLGTGEFFLLDVRTPAEFNAGYIEGAILIPLKNVPKEDPVELPPEKLLAQCLCEIPENKPILVYCKSGTRSDAARDLLVDSGYRHVYNLEGGILTWKAEGYPTVCPAI | failed
4 | MIIRIKHYGEVKIEDSKNLLLNLIENRIGIDNICNGKGTCGKCKVRFRQGVPEATSADLRYLSVEELEEGVRLACQVKPQKGMEIDVTLSNSFDRKLEHHHHHH | not failed
5 | MIISELVHNNLRGGNKTHNLELKLPVKPVIGGSSSEDDAIVADASSLMHGDNPGLEFRHKELEAPLIPQRTHSLLYQPQKKVKPEATDSYVSQLTAEADDHLQSPNRDSLYTSMPNLRDSPYPESSPDMAEDLSPSRRSENEDIYYKSMPNLGAGRHLHMCYQISRGNSDGYIIPINKEGCIPEGDVREGQMQLVTSL | failed
6 | MIITIARQCGCMGDQIGKALAEKYFIPFYDKDAVCRLAKEKGLYEKYPYFYGEMPLDMLLYADTMAGDDTTDNGKTPRKAMADIIGNENCVVVGRCGNNAFRHREDVISVFLTGNKEKRVELIEKKHNVSPKKAAKIVEDTDLRRRSYHNYYTGEEWGNAEYYDICIDVSKVGEDGALRLIEAYINETGVL | failed
7 | MIIVMSRRAAEADIAGVVAFIRSRGLREHISHGDERTVIGAIGDDRVLSVREVQTLPEVEKAVRILDTWKTVSRENRAEDSRVAAKGVAFGGGETVRIAAEPSVWSNADAVFLDPFFTSANLYDTLSADEGRGRCRRLAEQAASAHGAGKPVLVRVRNVRHVEAALNAGADILYLGGGLMSDLAVLNEAGSLNIPLVLCKDKHHSAEDWLNAAEYVVSRGNRHLILGESGVLGHTKGHPYRLDVESIVKVRQISHLPVIANITGLWSRDMPQEILYGLAKAAGACGIVGTCFEKAGG | failed
8 | MIIVTGATGKLGRRIVERLLERVPADRVGVSVRDPRKAQDLADRGVRVRQGSFDDPASLVHAFEGAEQLLLVSLDRTGQECVSGHRAAIDAAVKAGVGRILYTSQMGAAHDSRFQACRDHAQTEDLLRATGLPWTALRNGFYASSALQFLESARHTGDIALPADGPVAWTGHDDLAEATAAILAEEHRFEGPTPPLTGPAALDFDTVAEIASQTTGRPFTRTVVPDDAFREQVLAHGAPAPIGNLMLSIFAAARNGEFTAVDSTLAELIGREPATFRTQLEHAWAE | failed
9 | MIKEQSFEWLLEGCHRIADVAVAYYPNYAYACSAVKALRRSIAEHACLLKDLTDQGYTARTAHLTPVQIGILLSYWGMPDHVKDMTVKNPYLLVSKKYAK | failed
10 | MIKFMSIASGSSGNCYYLSNGNQALLIDAGIPLRSISKALKDHQLPIEGNVVGVLVTHDHADHIRTIGCLGEKFHLPVFATERVHNGINSSRYMDHLPLLSRRNILQEETFRLAGFDITAFPIPHDATENVGYHITAPGFSFTLCTDVGHITDTISHYASKADYLVMEANYDCEMLLSGPYPEFLKERVSGPNGHLSNQETGDFLARTFHPGMKHVWLCHLSKDNNHPDLCWKSIEYRLFSEGIRVGKDMELTVLKRTSPSSLYTLLEDLEHHHHHH | not failed
11 | MIKGNKMASFSQVSFSIPQRVIHWAMALLIFFNLLFPDAMAHAYRLMRRGETLTPDQISSANIHAYVGFAILLLAVLRLCLRFFQGVPPHPAEEPRASQIAAKAAHFTFYVLFFILPLSGIAAYYFGIATAGELHSGPFKAVMWVLIAGHVAAVLVHQFYWRTNVLKRMTHG | failed
12 | MIKGNNGNRGSSSSGYSADLLVCFPSRTHLALTPKPICSPSRPSDSSTNRRPHHRRQLSKLSGGGGGGHGSPVLWAKQASSKNMGGDEIAEPTSPKVTCAGQIKVRPSKCGGRGKNWQSVMEEIERIHDNRSQSKFFGLKKDVMGFLTCLRNIKFDFRCFGDFRHADVTSDDDEEEDDDDDEEEEVVEGEEEENSKTVFSKWFMVLQEEQNNKDDDKNNNKCDEKRDLEDTETEPAVPPPNALLLMRCRSAPAKSWLEERMKVKTEQEKREEQKEEKETEDQETSMKTKKKDLRSLMEEEKMELVLMRYDTEFYRLSSDIAKETWVVGGIQDPLSRSRSWKN | failed
13 | MIKHYLFMAVSQVFFSFFLVLFFISSIVLLISIASVTLVIKVSFLDLVQLFLYSLPGTIFFILPITFFAACALGLSRLSYDHELLVFFSLGVSPKKMTKVFAPLSLLVSAILLVFSLILIPTSKSTYYGFLRQKKDKIDINIRAGEFGQKLGDWLVYVDKTKNNSYDNLVLFSNKSLSQESFILAQKGNINNQNGVFELNLYNGHAYFTQGDKMRKVDFEELHLRNKLKSFNSNDAAYLQGTDYLGYWKKAFGKNANKNQKRRFSQAILVSLFPLASVFLIPLFGIANPRFKTNWSYFYVLGAVGVYFLMVHVISTDLFLMTFFFPFIWAFASYLLFRKFILKRY | failed
14 | MIKILETESSLGWGGQENRTARLINHLDPTRFRVYVATPKDSELYKRRQEIRAEFFPVEMRKSYSLKAIWQLYKIIKKERIDIVSTHSGKDAWLGVIAARLAGVKAIRTRHLQTPISSPLSYNLHDKVVCVSDFVKEDLAKRGVQKGRLCTIHTGVDVSKYAPHREGILRRELGLREEEILVGIVAVLRGAKGHKLLLEAFAKLSSSTARLVIIGDGPQRENIALIVEQLNLQERVVMLGHREDVAKIMPDLDIFVLSSSMEALGTAILEASACGVAVLGSNVGGIPECVRENGQLFEAGDSDSLVKNLQALINDTSKRKERGAKGRVLVEEEFSVEAMVRKTEGLYREIITPQKILIVSNTALGDTILSTPLFRETRLALPKAHITALLNPVNAMLFETNPYLDKIELYGGRWRGFLGAWWKLWRRGFDVALLGHSNDPQITPLCLLLGISKIIKIPNHKNPWQRFHHNPPASPIEDQYAVLTRLLTLKYIGIESSNTRLELFLKEEWTTEAKEILRPFGQKKLIGIQMGASNRSRQWFVERWIELAKRIIERDEEVVIVFVGSKNELEEISLVAQALPQDRVFISAGRLSLGAAAALIGELGLLFTPDTGPLHIAVALRVKTISLFAVANPKNSLPDYDQSLHRYIKVDRCCEPCVGKRCAYQKCMEAIGVDEVYEEYKKLQE | failed
15 | MIKLSSITAHILDIWHRRNSRSYIAHLRSLGIRIGDGCIFRDPLTTRIDVSRPALVSIGSNVDMNTYFQILTHDWASFVFRNKYHDFVNSSGRVEIGSNIYIGTNVIVLRGVTIGDNCVIGAGSVVTHDIPANSVAVGAPCRVVCSLEHHHHHH | not failed
16 | MIKMIVVLRLGHRPERDKRVTTHVALTARAFGADGIIIASEEDEKVKESVEDVVKRWGGPFFIEFNRNWRKVMKEFTGVKVHLTMYGLHVDDVIEELKEKLKKGEDFMIIVGAEKVPREVYELADYNVAIGNQPHSEVAALAVLLDRLLEGKGLKKEFKGAKIKIVPQARGKKVVEVQGYAEQDKAEGKATPGKNWENSGFTGDNP | not failed
17 | MIKPSNYQPPYTITPAIVNLVAEIGEIIGRYTVLAEQNLTPRLRRENRIRTIQASLAIENNTLTLEQVTAVIDGKRVLGHPREIQEVRNAFATYEAMEDWDASVEGDLLAAHELLMRGLVDETGRYRSGGVGIFRGEQLVHMAPPADRVPKLMADLLDWLENTNEHPLVASCIFHYEFEFIHPFADGNGRMGRLWQTLILRNWKPLLAYLPVETVIRDRQEDYYRVLAVADSQADATPFVEFMLGALRDAVREAVSTDHVGDQVTDQVAALIRAIGGGELSSNDLMQALGLSHRPTFRNNYLNPAMEDEWIERTQPDSPRSPTQRYRLTGKGQRWLQHHADE | not failed
18 | MIKRDFRKKLTMCLASVMALNLGISVSVKADEGLKNEIKNNDITKDISIYPTPKDMTVGNSEFTLEDSVNIVGGDLADTYAFELLKNMLTEFGIKINESEIEGATTIYIGESDDNIEEMENTLEEMNVDTSSISKDEGYVLVTDENIEGNKIVIRGNDETGTFYGVKSLKQLIKKEDNKVILDEVVIKDEPSFKMRAVVEGFYGTPWSQEERLDQIKMYGEYKMNAYIYAPKSDPYHREKWREPYPASELDRMKELIKTANENKVDFVFAISPGLDIKFEGEEGEADFKALINKAETLYDMGVRSFAILWDDIENRSGVQQAEVLNRFNKEFIKNKEGVKPLITVPVEYWGSSMFNGEEVKTYTKEFAETLDKDIEVMWTGNDVIPPNGVSLEDAKKVSNVYNRKMMLWWNYPVNDYKEDKMALGPIYDLDRNLDEDVSGFIVNPMRFSDASKISTLTGADYGWNSISYEAEKSWDKAIEIIAGEMKEEFKIFANHSTRLDTGRPDSPEIKNTIDSLWEKWEAGSDISLELSNLQNEFSKMVQVPNKLRSNLENKALLNQLDSHLSKFEIYGNAGLKSIEILQDILNKDMSEFWSDNFEGIKLLRNLDGIKATIANNVVDPFIRKVHEVGNEYFNKETTVLEEKEYSYTSIGNIVDHKYSEWFISEETHVPNYMFDDKDNTGFWSAAPVQKDEFIGFDLGEAEEIKDIYLLMGRNNNDTDVLTNGVIEYSLDGENWTELEVNKGERELLVETGIKARFIRYRALSDSENKLYVRDFKVNTGKSKEKLIGDVEVKDSNINKSSEGENEIISASNINKISFEEGDSIGLAINDVKNVIGFEVLGDVESNKFVLESSFDNIEWEEVCNGTSFKDETPLVGKFFRIRAKEKTEANINEIKISLEGYSKGIVSTNRRISSNANIHPDFVADNDYGTSFVCSDTIKKGDFVQLDLGVEKKIRDISLVQGPGGDYMDGDIEYSLDGENWIKLGVVEGTDTLIKDLDVKARYVRVISTGYKDRWSRVREFTVNKTVKEFETKATSEGTYIDRSENIRDNNLNSAYIPEGEIKSGDYLLRRIFNERLVSKVTVAQSTDNLSGAKVIGKTVNGETLDLGVLDKGLNELVLKNPRQLVSVKLVWEKDAGKVEIFEVKPTFVSLDYIIEDIKNEIQRGKDVLVEHKDKENEERTQLEEALKNIENLLNNKASDDEIVRAYEDLTNKINNFIDSEPNKEEENKPSKPEGGENGSEGEGDKEDSGDKNENEDNKDENGNLPNTGSPLGAGELMLVGAALATLGGVTIKKKK | failed
19 | MIKSFRHKGLKKFFESGSTAGIQPAHKNRLARQLHQLNVASCPDDMNLPGWGLHLLQGKNPKKQDVDGHYSISVNGNWRLTFYFDHGDAVLVDYQDYH | failed
20 | MIKSKGDVNILLNFRHNINGEDLIIAVAQDHETGEVLMVAYMNREALRRTLETGTAHYWSTSRGKLWLKGESSGHVQRVKDVLVDCDGDAVVLKVEQEGGACHTGYRSCFYRSIDGDELKVREDAVKVFDPEEIYGDG | not failed
21 | MIKSTNIQAIGSGIMHQINNVYSLTPLSLPMELTPSCNEFYLKTWSEWEKNGTPGEQRNIAFNRLKICLQNQEAELNLSELDLKTLPDLPPQITTLEIRKNLLTHLPDLPPMLKVIHAQFNQLESLPALPETLEELNAGDNKIKELPFLPENLTHLRVHNNRLHILPLLPPELKLLVVSGNRLDSIPPFPDKLEGLALANNFIEQLPELPFSMNRAVLMNNNLTTLPESVLRLAQNAFVNVAGNPLSGHT | failed
